{
  "source": "paper PMC5842915",
  "about": "(Biochemistry, 2017)",
  "molecules": {"B1": {"name": "BECN1 BH3 peptide (residues 97-126) (peptide)", "peptide": "FTLIGEASDGGTMENLSRRLKVTGDLFDIM"}},
  "key": {"[1]": {"target": "V250A/M254A/L261A mutant of full-length BECN1 (human) (UniProt Q14457)", "test": "AUC"}, "[2]": {"target": "BECN1 CC CC (Homo sapiens) (UniProt Q14457)", "conditions": "cited from earlier work"}, "Bcl-2 (Homo sapiens) [3]": {"target": "Bcl-2 (Homo sapiens) (UniProt P10415)", "sequence (P10415 whole entry)": "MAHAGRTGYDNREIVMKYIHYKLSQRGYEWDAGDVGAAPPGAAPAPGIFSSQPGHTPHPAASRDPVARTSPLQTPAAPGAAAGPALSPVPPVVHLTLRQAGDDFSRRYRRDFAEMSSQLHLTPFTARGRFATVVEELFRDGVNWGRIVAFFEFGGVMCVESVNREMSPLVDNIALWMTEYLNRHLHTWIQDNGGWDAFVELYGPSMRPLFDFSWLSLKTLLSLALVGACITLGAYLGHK", "conditions": "cited from earlier work"}, "[4]": {"target": "BECN^1-265 (BECN1 residues 1-265, BARA-less construct) (human) (UniProt Q14457)", "test": "AUC"}, "Bcl-2 (Homo sapiens) [5]": {"target": "Bcl-2 (Homo sapiens) (UniProt P10415)", "conditions": "cited from earlier work", "remark": "listed apart in the source"}, "[6]": {"target": "human Bcl-2 (residues 1-218) (human, UniProt P10415 1-218)", "sequence (P10415 1-218)": "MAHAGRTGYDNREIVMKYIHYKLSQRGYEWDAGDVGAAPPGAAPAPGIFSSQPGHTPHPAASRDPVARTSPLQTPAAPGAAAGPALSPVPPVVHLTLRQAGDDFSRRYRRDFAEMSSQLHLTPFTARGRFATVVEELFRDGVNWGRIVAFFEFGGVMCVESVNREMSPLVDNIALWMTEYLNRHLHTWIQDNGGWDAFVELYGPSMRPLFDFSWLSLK", "test": "ITC"}},
  "note": "“And” between values parts separate entries of the source, which are not always exact repeats. Equal values may be shown once. Read-outs that look alike come from different tables or passages of the source.",
  "data": [
    {"molecule": "V250A/M254A/L261A mutant of full-length BECN1 (from UniProt Q14457 1-450) (natural protein)", "values": [
      {"measurement": "Kd", "setting": "[1]", "result": 1.86, "unit": "µM"}
    ]},
    {"molecule": "BECN1 CC CC (from UniProt Q14457)", "values": [
      {"measurement": "Kd", "setting": "[2]", "result": "48 µM and 45 µM"}
    ]},
    {"molecule": "BECN1 BH3 peptide 105-130 (from UniProt Q14457)", "values": [
      {"measurement": "Kd", "setting": "Bcl-2 (Homo sapiens) [3]", "result": 8, "unit": "µM"}
    ]},
    {"molecule": "BECN^1-265 (BECN1 residues 1-265, BARA-less construct) (from UniProt Q14457 1-265) (domain or fragment)", "values": [
      {"measurement": "Kd", "setting": "[4]", "result": 1.35, "unit": "µM"}
    ]},
    {"molecule": "BECN1 IDR 1-135 (from UniProt Q14457)", "values": [
      {"measurement": "Kd", "setting": "Bcl-2 (Homo sapiens) [5]", "result": 8.6, "unit": "µM"}
    ]},
    {"molecule": "B1", "values": [
      {"measurement": "Kd", "setting": "[6]", "result": 9.6, "unit": "µM"}
    ]}
  ]
}
